In article PMC9071374, “Identification of a WRKY transcriptional activator from Camellia sinensis that regulates methylated EGCG biosynthesis”:

B1: CsDFR promoter W-box probe (dsDNA)
DNA 1: GCCCAAGCTCATATAGTCAAAAAAGTCAAAAAGCCAAAAAGTCAACCCACTTCCC
DNA 2: GGGAAGTGGGTTGACTTTTTGGCTTTTTGACTTTTTTGACTATATGAGCTTGGGC
B2: CCoAOMT promoter W-box probe (dsDNA)
DNA 1: TTTACTTAAAATATGGATTTTGACTTGTGATATAAAAAATTATAAATATTTT
DNA 2: AAAATATTTATAATTTTTTATATCACAAGTCAAAATCCATATTTTAAGTAAA

Target: CsWRKY57like (WRKY domain) (Camellia sinensis, UniProt A0A4S4EXI7 145-222)
Sequence (A0A4S4EXI7 entry or part of it): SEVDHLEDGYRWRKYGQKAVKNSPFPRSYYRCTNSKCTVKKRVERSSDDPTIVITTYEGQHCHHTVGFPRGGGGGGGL
Experiment: EMSA; excess unlabeled probe abolishes binding; Biotin-labeled probes, 6% native PAGE; buffer, salt, pH and temperature not stated (cited refs 48, 49)
Details: protein: recombinant; tags: GST (pGEX-4T); label: biotin

Row | Binder | binding result
1 | B1 | binds
2 | B2 | binds
